± gives the standard deviation of the averaged measurements.
System: Saccharomyces cerevisiae
Experiment: protein stability index of tFT-peptide fusion (C-terminal peptide) (PSI (0-1 scale)); higher = more stable (slower turnover)
Conditions: temperature: 30 C
Experimental: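 MPS profiling in S. cerevisiae of the yeast C-terminome library: the last 12 aa of each annotated ORF are fused to the C-terminus of a sfGFP-mCherry timer, after a GGGS linker. Cells are FACS-sorted into 8 mCherry/sfGFP bins and deep-sequenced. PSI runs from 0 (unstable) to 1 (stable); wild type and das1Δ backgrounds, two technical replicates each.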

[1] = genetic background: das1 deletion

Sequence | protein stability index [1] | protein stability index (genetic background: wild type)
YMIRFIANGYYY [SWR1 C-terminal 12 aa] | 0.613 ± 0.014 | 0.614 ± 0.009
WDLEQIMSQHGF [PCL1 C-terminal 12 aa] | 0.7397 ± 0.007 | 0.735 ± 0.0046
KELEPVPPVSKS [OMS1 C-terminal 12 aa] | 0.7006 ± 0.007 | 0.671 ± 0.01
EFSTLFDDYKDN [YRR1 C-terminal 12 aa] | 0.7429 ± 0.0055 | 0.767 ± 0.022
STKATPTDLSKL [MLS1 C-terminal 12 aa] | 0.7565 ± 0.0027 | 0.8075 ± 0.0051
PPNSTSTNPYSS [SKG3 C-terminal 12 aa] | 0.729 ± 0.015 | 0.7181 ± 0.0014
NLAGRKNSRDNE [LOT5 C-terminal 12 aa] | 0.681 ± 0.017 | 0.6772 ± 0.0027
NKYMNEMLEYMQ [NUF2 C-terminal 12 aa] | 0.715 ± 0.0072 | 0.719 ± 0.085
SLENVAMLVYKK [TRM13 C-terminal 12 aa] | 0.698 ± 0.048 | 0.66 ± 0.026
EKMLAAPHQNKV [SPR28 C-terminal 12 aa] | 0.696 ± 0.015 | 0.6924 ± 0.001
RKELEKGKKNSK [YLR363W-A C-terminal 12 aa] | 0.694 ± 0.025 | 0.703 ± 0.054
LKAVCPPDAGFA [YOR387C C-terminal 12 aa] | 0.7086 ± 0.0046 | 0.7462 ± 0.0071
YSISISLHTPCV [YHR049C-A C-terminal 12 aa] | 0.66 ± 0.013 | 0.632 ± 0.02
FDREDAMKKENK [DPH2 C-terminal 12 aa] | 0.692 ± 0.024 | 0.663 ± 0.059
AEFLGSFDELVL [EEB1 C-terminal 12 aa] | 0.72333 ± 5e-06 | 0.719 ± 0.018
MAQNYVIDRMGL [MTC1 C-terminal 12 aa] | 0.707 ± 0.027 | 0.68 ± 0.037
KNSGEKLVAVLN [YCR102C C-terminal 12 aa] | 0.6723 ± 0.001 | 0.666 ± 0.025
RYVIFQSCGLIL [MRX8 C-terminal 12 aa] | 0.657 ± 0.031 | 0.683 ± 0.012
ELASYILKELNL [KIN2 C-terminal 12 aa] | 0.731 ± 0.028 | 0.702 ± 0.064
PMIWHLVKKQWK [TOM5 C-terminal 12 aa] | 0.686 ± 0.011 | 0.682 ± 0.052
LKITDDLARKGF [TGL2 C-terminal 12 aa] | 0.7205 ± 0.0035 | 0.666 ± 0.0096

Sequence | protein stability index [1] | protein stability index (genetic background: wild type)
FVDYKTHPVGAN [RGI1 C-terminal 12 aa] | 0.709 ± 0.01 | 0.7141 ± 0.0028
DDDNEDVEMSDA [NOC2 C-terminal 12 aa] | 0.66818 ± 0.00066 | 0.693 ± 0.057
LRYYVSKLINFK [YNL324W C-terminal 12 aa] | 0.70435 ± 0.00064 | 0.6889 ± 0.00073
RELLKSLVLSHR [RSM23 C-terminal 12 aa] | 0.703 ± 0.0085 | 0.683 ± 0.019
KDNNISSYGSII [YPL162C C-terminal 12 aa] | 0.693 ± 0.037 | 0.668 ± 0.011
GQTSRTVTPAPN [ITC1 C-terminal 12 aa] | 0.726 ± 0.026 | 0.6887 ± 0.0059
KRDKLKKNCVIM [YGL082W C-terminal 12 aa] | 0.74 ± 0.016 | 0.698 ± 0.034
IKETIQRLTDDR [GMC2 C-terminal 12 aa] | 0.661 ± 0.018 | 0.676 ± 0.015
IEKSKSDRRKLL [YHR022C C-terminal 12 aa] | 0.728 ± 0.063 | 0.2695 ± 0.0021
QKAQDVDVSMQD [RPN13 C-terminal 12 aa] | 0.68 ± 0.022 | 0.654 ± 0.026
VVNNRIFSGISK [RSM26 C-terminal 12 aa] | 0.713 ± 0.027 | 0.698 ± 0.018
NDTIFKLKVFKL [ILS1 C-terminal 12 aa] | 0.7346 ± 0.001 | 0.759 ± 0.099
SNHECSQINLLE [YCL021W C-terminal 12 aa] | 0.695 ± 0.018 | 0.688 ± 0.017
KPRKKAKALPKT [RTT109 C-terminal 12 aa] | 0.689 ± 0.032 | 0.737 ± 0.014
YMKHLLECRSLW [PCD1 C-terminal 12 aa] | 0.733 ± 0.019 | 0.6945 ± 0.00077
DMMMLFGAEGDE [TAF7 C-terminal 12 aa] | 0.72102 ± 0.00011 | 0.707 ± 0.027
ISIALEGHTLFL [PDE1 C-terminal 12 aa] | 0.715 ± 0.02 | 0.70608 ± 0.00038
DELSLRPATERI [YGR038C-E C-terminal 12 aa] | 0.739 ± 0.23 | 0.571
DCLEGMLELEKL [DSS1 C-terminal 12 aa] | 0.698 ± 0.025 | 0.677 ± 0.041
VACNPVAMADHQ [TUS1 C-terminal 12 aa] | 0.71 ± 0.033 | 0.677 ± 0.019
DIFSRFSIILKC [YPR136C C-terminal 12 aa] | 0.413 ± 0.017 | 0.281 ± 0.012

Sequence | protein stability index [1] | protein stability index (genetic background: wild type)
EDNDYELIFMNV [PML1 C-terminal 12 aa] | 0.7194 ± 0.0068 | 0.712 ± 0.019
VLLIRSDKKKKV [YIL102C-A C-terminal 12 aa] | 0.71 ± 0.024 | 0.696 ± 0.035
QYVLYKNEAGDK [AIM39 C-terminal 12 aa] | 0.689 ± 0.017 | 0.698 ± 0.019
AQGEKDAAATAN [TOM22 C-terminal 12 aa] | 0.677 ± 0.019 | 0.6591 ± 0.0032
RDNQIPDKEIGI [CAF16 C-terminal 12 aa] | 0.6731 ± 0.0026 | 0.704 ± 0.072
RLQQVRKNPYPF [OPI7 C-terminal 12 aa] | 0.7357 ± 0.0072 | 0.712 ± 0.032
EPLKESIFNQLK [MRPL23 C-terminal 12 aa] | 0.694 ± 0.013 | 0.678 ± 0.059
FMKELEMSEESD [RAD4 C-terminal 12 aa] | 0.693 ± 0.015 | 0.738 ± 0.028
LPSERSRLSYTN [CBP3 C-terminal 12 aa] | 0.703 ± 0.026 | 0.696 ± 0.071
NMGGWVLGGNAR [SND1 C-terminal 12 aa] | 0.721 ± 0.023 | 0.6926 ± 0.0057
AYTEVKAVRIKL [ALD6 C-terminal 12 aa] | 0.6745 ± 0.0043 | 0.69 ± 0.02
DLRCLKYKYKNA [YGR016W C-terminal 12 aa] | 0.695 ± 0.011 | 0.348 ± 0.028
QNLLSAYRMNHK [AVO1 C-terminal 12 aa] | 0.70387 ± 0.00067 | 0.64 ± 0.021
KGHVHSPRHNND [YOR379C C-terminal 12 aa] | 0.7103 ± 0.0065 | 0.713 ± 0.035
SKIPSSLYIYHM [YGL042C C-terminal 12 aa] | 0.7073 ± 0.0067 | 0.619 ± 0.04
LSKDGIYTAIPK [PAU15 C-terminal 12 aa] | 0.685 ± 0.025 | 0.767 ± 0.12
QKRKSRILSFIK [UBP9 C-terminal 12 aa] | 0.7208 ± 0.006 | 0.732 ± 0.047
NDAQKRAIDENF [SIS1 C-terminal 12 aa] | 0.687 ± 0.016 | 0.683 ± 0.0076
NPAARLDEDLYE [FRS2 C-terminal 12 aa] | 0.662 ± 0.053 | 0.707 ± 0.022
